The results in this text go back to the supplement of paper PMC5998384.

Series [1] deals with HeLa Kyoto. Nature of the series: melting temperature (median over replicates), in situ; higher = more thermally stable.
Series [2] relates to HeLa Kyoto. Put plainly: thermal stability score vs G1/S (z-score of summed log2 fold changes over temperatures); higher = more thermally stable than in G1/S.
The subject of series [3] is HeLa Kyoto. Nature of the series: solubility in G1/S (NP-40 vs SDS abundance) (log2 ratio); higher = more soluble. To be noted: cell cycle stage: G1/S.
For series [4], the system named is HeLa Kyoto. Nature of the series: solubility change mitosis vs G1/S (difference of NP-40 vs SDS log2 ratios) (log2 ratio difference); higher = more soluble in mitosis.
[5] abbreviates: cell cycle stage: early G1 (4.5 h after nocodazole release).
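For melting temperature (median over replicates), in situ in this document: HeLa Kyoto cells synchronized by double thymidine or nocodazole block, proteins quantified by TMT10plex mass spectrometry, three independent biological replicates.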
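For solubility change mitosis vs G1/S (difference of NP-40 vs SDS log2 ratios) in this document: synchronized HeLa Kyoto cells (double thymidine block for G1/S, nocodazole release for mitosis), protein amounts in NP-40 versus SDS lysates quantified by mass spectrometry, three biological replicates.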
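For solubility in G1/S (NP-40 vs SDS abundance) in this document: HeLa Kyoto cells arrested at G1/S by double thymidine block, proteins quantified by TMT10plex mass spectrometry in mild NP-40 versus SDS extracts, three biological replicates.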
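For thermal stability score vs G1/S (z-score of summed log2 fold changes over temperatures) in this document: synchronized HeLa Kyoto cells, proteins quantified by TMT10plex mass spectrometry, three biological replicates, mitosis taken 0.5 h after nocodazole release, G1/S directly after double thymidine block.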

For “MVQAWYMDDAPGDPRQPHRPDPGRPVGLEQLRRLGVLYWKLDADKYENDPELEKIRRERNYSWMDIITICKDKLPNYEEKIKMFYEEHLHLDDEIRYILDGSGYFDVRDKEDQWIRIFMEKGDMVTLPAGIYHRFTVDEKNYTKAMRLFVGEPVWTAYNRPADHFEARGQYVKFLAQTA [ADI1]”, the melting temperature in the series with HeLa Kyoto [1] (cell cycle stage: G1/S) and with HeLa Kyoto [1] (cell cycle stage: mitosis) was 51.1 °C each time. Besides, the thermal stability score in the series with HeLa Kyoto [2] (setting [5]) is -0.911; with HeLa Kyoto [2] (cell cycle stage: mitosis) it was -0.735. Besides, the “solubility in G1/S (log2)” value with HeLa Kyoto [3] stood at 0.18. In the series on HeLa Kyoto [4], the “solubility change mitosis (log2)” value is -0.0474.
Turning to “MVQLYNLHPFGSQQVVPCKLEPDRFCGGGRDALFVAAGCKVEAFAVAGQELCQPRCAFSTLGRVLRLAYSEAGDYLVAIEEKNKATFLRAYVNWRNKRTENSRVCIRMIGHNVEGPFSKAFRDQMYIIEMPLSEAPLCISCCPVKGDLLVGCTNKLVLFSLKYQIINEEFSLLDFERSLIIHIDNITPVEVSFCVGYVAVMSDLEVLIVKLESGPKNGERVHHHPHKTNNRIRRTEEGISNEISQLESDDFVICQKPLELLGEKSEQSGLSVTLESTGLADEKRKYSHFQHLLYRRFAPDISSYVLSDDIKLHSLQLLPIYQTGSLTSDGKNLSQEKELLSLFCFFSLPHVGYLYMVVKSVELMSVYQYPEKSQQAVLTPQFLHVITSNNLQCFTVRCSAAAAREEDPYMDTTLKACPPVSMDVCALRIQLFIGLKAICHFKNHIILLTKAEPEAIPERRQSPKRLLSRKDTSVKIKIPPVAEAGWNLYIVNTISPVQLYKEMVDYSNTYKTVKTQSCIHLLSEAHLLVRAALMDASQLEPGEKAELLEAFKESCGHLGDCYSRLDSQHSHLTLPYYKMSGLSMAEVLARTDWTVEDGLQKYERGLIFYINHSLYENLDEELNEELAAKVVQMFYVAEPKQVPHILCSPSMKNINPLTAMSYLRKLDTSGFSSILVTLTKAAVALKMGDLDMHRNEMKSHSEMKLVCGFILEPRLLIQQRKGQIVPTELALHLKETQPGLLVASVLGLQKNNKIGIEEADSFFKVLCAKDEDTIPQLLVDFWEAQLVACLPDVVLQELFFKLTSQYIWRLSKRQPPDTTPLRTSEDLINACSHYGLIYPWVHVVISSDSLADKNYTEDLSKLQSLICGPSFDIASIIPFLEPLSEDTIAGLSVHVLCRTRLKEYEQCIDILLERCPEAVIPYANHELKEENRTLWWKKLLPELCQRIKCGGEKYQLYLSSLKETLSIVAVELELKDFMNVLPEDGTATFFLPYLLYCSRKKPLT [HPS3]”, the melting temperature in the series with HeLa Kyoto [1] (cell cycle stage: G1/S) came to 51.4 °C; with HeLa Kyoto [1] (cell cycle stage: mitosis) it was 50.6 °C. Besides, the thermal stability score amounted to 0.612 in the series on HeLa Kyoto [2] (setting [5]) and 0.736 in the series on HeLa Kyoto [2] (cell cycle stage: mitosis). Besides, in the series with HeLa Kyoto [3], the “solubility in G1/S (log2)” value was -0.0533. Further, the “solubility change mitosis (log2)” value in the series on HeLa Kyoto [4] is -0.103.
In the case of “MVSKMIIENFEALKSWLSKTLEPICDADPSALAKYVLALVKKDKSEKELKALCIDQLDVFLQKETQIFVEKLFDAVNTKSYLPPPEQPSSGSLKVEFFPHQEKDIKKEEITKEEEREKKFSRRLNHSPPQSSSRYRENRSRDERKKDDRSRKRDYDRNPPRRDSYRDRYNRRRGRSRSYSRSRSRSWSKERLRERDRDRSRTRSRSRTRSRERDLVKPKYDLDRTDPLENNYTPVSSVPSISSGHYPVPTLSSTITVIAPTHHGNNTTESWSEFHEDQVDHNSYVRPPMPKKRCRDYDEKGFCMRGDMCPFDHGSDPVVVEDVNLPGMLPFPAQPPVVEGPPPPGLPPPPPILTPPPVNLRPPVPPPGPLPPSLPPVTGPPPPLPPLQPSGMDAPPNSATSSVPTVVTTGIHHQPPPAPPSLFTADTYDTDGYNPEAPSITNTSRPMYRHRVHAQRPNLIGLTSGDMDLPPREKPPNKSSMRIVVDSESRKRTIGSGEPGVPTKKTWFDKPNFNRTNSPGFQKKVQFGNENTKLELRKVPPELNNISKLNEHFSRFGTLVNLQVAYNGDPEGALIQFATYEEAKKAISSTEAVLNNRFIKVYWHREGSTQQLQTTSPKVMQPLVQQPILPVVKQSVKERLGPVPSSTIEPAEAQSASSDLPQNVTKLSVKDRLGFVSKPSVSATEKVLSTSTGLTKTVYNPAALKAAQKTLLVSTSAVDNNEAQKKKQEALKLQQDVRKRKQEILEKHIETQKMLISKLEKNKTMKSEDKAEIMKTLEVLTKNITKLKDEVKAASPGRCLPKSIKTKTQMQKELLDTELDLYKKMQAGEEVTELRRKYTELQLEAAKRGILSSGRGRGIHSRGRGAVHGRGRGRGRGRGVPGHAVVDHRPRALEISAFTESDREDLLPHFAQYGEIEDCQIDDSSLHAVITFKTRAEAEAAAVHGARFKGQDLKLAWNKPVTNISAVETEEVEPDEEEFQEESLVDDSLLQDDDEEEEDNESRSWRR [RBM26]”, the melting temperature in the series on HeLa Kyoto [1] (cell cycle stage: G1/S) was 47 °C; in the series with HeLa Kyoto [1] (cell cycle stage: mitosis) it was 48.9 °C. For the same sequence, the thermal stability score in the series with HeLa Kyoto [2] (setting [5]) amounted to 1.92; in the series with HeLa Kyoto [2] (cell cycle stage: mitosis), 4.06. Moreover, the “solubility in G1/S (log2)” value with HeLa Kyoto [3] is -0.109. In the series with HeLa Kyoto [4], the “solubility change mitosis (log2)” value came to 0.0367.
“MVSRVQLPPEIQLAQRLAGNEQVTRDRAVRKLRKYIVARTQRAAGGFTHDELLKVWKGLFYCMWMQDKPLLQEELGRTISQLVHAFQTTEAQHLFLQAFWQTMNREWTGIDRLRLDKFYMLMRMVLNESLKVLKMQGWEERQIEELLELLMTEILHPSSQAPNGVKSHFIEIFLEELTKVGAEELTADQNLKFIDPFCRIAARTKDSLVLNNITRGIFETIVEQAPLAIEDLLNELDTQDEEVASDSDESSEGGERGDALSQKRSEKPPAGSICRAEPEAGEEQAGDDRDSGGPVLQFDYEAVANRLFEMASRQSTPSQNRKRLYKVIRKLQDLAGGIFPEDEIPEKACRRLLEGRRQKKTKKQKRLLRLQQERGKGEKEPPSPGMERKRSRRRGVGADPEARAEAGEQPGTAERALLRDQPRGRGQRGARQRRRTPRPLTSARAKAANVQEPEKKKKRRE [RRP1]”: the melting temperature in the series on HeLa Kyoto [1] (cell cycle stage: G1/S) was 46.6 °C; with HeLa Kyoto [1] (cell cycle stage: mitosis) it was 48.8 °C. Besides, the results for the thermal stability score in the series on HeLa Kyoto [2] (setting [5]) and with HeLa Kyoto [2] (cell cycle stage: mitosis) were 2.67 and 7.98, respectively. Besides, the “solubility in G1/S (log2)” value in the series on HeLa Kyoto [3] is -1.24. Moreover, the “solubility change mitosis (log2)” value in the series with HeLa Kyoto [4] turned out to be 0.797.
Regarding “MVSWMICRLVVLVFGMLCPAYASYKAVKTKNIREYVRWMMYWIVFALFMAAEIVTDIFISWFPFYYEIKMAFVLWLLSPYTKGASLLYRKFVHPSLSRHEKEIDAYIVQAKERSYETVLSFGKRGLNIAASAAVQAATKSQGALAGRLRSFSMQDLRSISDAPAPAYHDPLYLEDQVSHRRPPIGYRAGGLQDSDTEDECWSDTEAVPRAPARPREKPLIRSQSLRVVKRKPPVREGTSRSLKVRTRKKTVPSDVDS [REEP4]”, the melting temperature in the series with HeLa Kyoto [1] (cell cycle stage: G1/S) was 53.4 °C; in the series on HeLa Kyoto [1] (cell cycle stage: mitosis) it was 53.2 °C. In addition, the values for the thermal stability score in the series on HeLa Kyoto [2] (setting [5]) and in the series on HeLa Kyoto [2] (cell cycle stage: mitosis) were -1.06 and -1.58, respectively. Further, in the series with HeLa Kyoto [3], the “solubility in G1/S (log2)” value worked out at 0.0372. In addition, the “solubility change mitosis (log2)” value in the series on HeLa Kyoto [4] is -0.135.
“MVSWMISRAVVLVFGMLYPAYYSYKAVKTKNVKEYVRWMMYWIVFALYTVIETVADQTVAWFPLYYELKIAFVIWLLSPYTKGASLIYRKFLHPLLSSKEREIDDYIVQAKERGYETMVNFGRQGLNLAATAAVTAAVKSQGAITERLRSFSMHDLTTIQGDEPVGQRPYQPLPEAKKKSKPAPSESAGYGIPLKDGDEKTDEEAEGPYSDNEMLTHKGLRRSQSMKSVKTTKGRKEVRYGSLKYKVKKRPQVYF [REEP3]”: the results for the melting temperature in the series on HeLa Kyoto [1] (cell cycle stage: G1/S) and in the series on HeLa Kyoto [1] (cell cycle stage: mitosis) were 52.8 °C and 54.9 °C, respectively. The results for the thermal stability score with HeLa Kyoto [2] (setting [5]) and in the series with HeLa Kyoto [2] (cell cycle stage: mitosis) were -1.24 and -0.732, respectively. In addition, the “solubility in G1/S (log2)” value in the series on HeLa Kyoto [3] was -0.258. The “solubility change mitosis (log2)” value in the series on HeLa Kyoto [4] is -0.0257.
